# Measurements: patent publication US5091176A, “Polymer-modified peptide drugs having enhanced biological and pharmacological activities” (W. R. Grace & Co.-Conn., priority 1990, dated 1992)
# How the values were obtained:
# alkaline phosphatase [1] = target: T1, alkaline phosphatase (Bos taurus, UniProt P19111); test: Residual enzymatic activity of alkaline phosphatase after polymer modification (Example V, Table I); type: biochemical; conditions: for alk phos activity dA/dt: alkaline phosphatase reacted 1 hour with prepolymer at the listed NCO:protein NH2 ratio, quenched with TRIS, dialyzed; for alk phos activity % Remaining: relative to control without prepolymer, prepolymer at the listed NCO:protein NH2 ratio
# Procedure: A constant amount of protein was treated with increasing amount of prepolymer and the residual activity was determined. For comparison with Prepolymer A (high temperature) prepolymers, two other isocyanate prepolymers were used. One is a 550 dalton mono methoxy polyethylene oxide end capped with IPDI; the second is a diol ([…] P-24) of molecular weight 2200 comprising 80% ethylene oxide and 20% propylene oxide, end capped with IPDI. Thus the 3+functionality of Prepolymer A is compared to mono- and di-functional isocyanate derivatives.
# After one hour at ambient temperature the residual isocyanate was quenched by addition of 9 ml of 0.5 M TRIS, pH 9.0. The samples were then dialyzed vs. 0.05 M sodium borate, pH 9.0 at 4° C. using 7000 MWCO dialysis tubing. Samples of each were assayed for enzymatic activity then stored frozen.
# Table 1 lists the relative amounts of protein amine and polymer isocyanate reacted, and the residual enzymatic activity remaining.
# [2] = Circulatory half-life of radioiodinated peptide and conjugate after tail vein injection; set-up: species or system C57B1/6 mice; conditions: mouse, in vivo
# Procedure: The conjugate from Example XIII was passed over a disposable Sephadex G25 column (PD10 from Pharmacia, Inc.) to separate free from polymer-bound peptide. Confirmation of the purity of the conjugate was obtained by HPLC. About 45 μg of conjugate (based on peptide) were radiolabeled with 125-iodine using the well known chloramine-T procedure. Free 125-iodine was separated from radiolabeled conjugate using a PD10 column. Of the original 30 μCi of Na^125 I used for the iodination, more than 23 μCi were incorporated into the conjugate.
# Portions of the radiolabeled YRGDS-Prepolymer A conjugate from Example XIV were injected into the tail veins of C57B1/6 mice. As a control, YRGDS free peptide was radioiodinated by the procedure described in Example XIV and also injected. At various times blood was withdrawn from the animals and the amount of radioiodine remaining in the circulation determined using a gamma counter. A biphasic clearance curve (α:β) was obtained for both species. […] Thus by coupling the peptide to this polymer its clearance rate from the circulation is markedly extended.
# alkaline phosphatase [3] = target: T1, alkaline phosphatase; test: Residual enzyme activity of alkaline phosphatase-Prepolymer A conjugates, p-nitrophenylphosphate as substrate (Examples IX, X); type: biochemical, calf; set-up: Alkaline Phosphatase from calf intestine, Type I, was obtained from Sigma; purchased Sigma Type I; host or cells: calf intestine (tissue-derived); conditions: after 1 hour at ambient temperature
# Procedure: Alkaline Phosphatase from calf intestine, Type I, was obtained from Sigma. A 5 mg/ml solution was prepared in 0.01 M Tris, pH 8.0, containing 1mM CaCl2. To 0.2 ml of this enzyme solution was added 0.02 ml of a 50% (w/w) solution of Prepolymer A (low temperature) in acetonitrile. After 1 hour at ambient temperature the solution was assayed for residual enzyme activity and injected into an HPLC to evaluate the molecular size of the conjugate. […] Size analysis was performed by HPLC using a Zorbax GF250 column (DuPont) and a mobile phase consisting of 0.05 M sodium phosphate, pH 7.0, with 0.3 M NaCl at a flow rate of 0.5 ml/min.
# alkaline phosphatase [4] = conditions: alkaline phosphatase 50 ng/well; rabbit antisera, day 35 test bleed; FIG. 1
# Procedure: Antibody titers in the five rabbit sera from Example VI were determined by ELISA based on the following general procedure:
# 1) antigen is immobilized in 96-well PVC plates,
# 2) test antiserum is diluted with phosphate-TWEEN-chicken serum (PTCS) and incubated on the plate for 1 hour,
# 3) the plate is washed and Biotin-Protein A is added for 1 hour,
# 4) the plate is washed and glucose oxidase-avidin is added for 15 minutes.
# 5) the plate is washed and substrate (glucose+peroxidase+ABTS) is added. Absorbance at 405 nm is read at intervals on a plate reader.
Molecule,alk phos activity dA/dt (alkaline phosphatase [1]),alk phos activity % Remaining (alkaline phosphatase [1]),further results
alkaline phosphatase,0.1200,100.0%,
tyr-arg-gly-aspser [YRGDS free peptide],,,half-life of the initial phase (t178 α) [2]: 30 s; label cleared in the initial phase [2]: about 75%; second phase half life (t1/2 β) [2]: 2 hours 40 minutes
"A4: alkaline phosphatase coupled to mono-functional IPDI-capped methoxy polyethylene oxide, NCO:NH2 14.9:1 (conjugate, UniProt P19111 20-506, looked up, coupled to IPDI-capped methoxy PEG) Intestinal-type alkaline …: LVPVEEEDPAFWNRQAAQALDVAKKLQPIQTAAKNVILFLGDGMGVPTVTATRILKGQMNGKLGPETPLAMDQFPYVALSKTYNVDRQVPDSAGTATAYLCGVKGNYRTIGVSAAARYNQCKTTRGNEVTSVMNRAKKAGKSVGVVTTTRVQHASPAGAYAHTVNRNWYSDADLPADAQMNGCQDIAAQLVNNMDIDVILGGGRKYMFPVGTPDPEYPDDASVNGVRKRKQNLVQAWQAKHQGAQYVWNRTALLQAADDSSVTHLMGLFEPADMKYNVQQDHTKDPTLQEMTEVALRVVSRNPRGFYLFVEGGRIDHGHHDDKAYMALTEAGMFDNAIAKANELTSELDTLILVTADHSHVFSFGGYTLRGTSIFGLAPSKALDSKSYTSILYGNGPGYALGGGSRPDVNDSTSEDPSYQQQAAVPQASETHGGEDVAVFARGPQAHLVHGVEEETFVAHIMAFAGCVEPYTDCNLPAPTTATSIPD",0.0313,26.1%,
"B2: alkaline phosphatase coupled to IPDI-capped diol TAKELACK P-24, NCO:NH2 2.7:1 (conjugate, UniProt P19111 20-506, looked up, coupled to IPDI-capped diol polymer) Intestinal-type alkaline …: LVPVEEEDPAFWNRQAAQALDVAKKLQPIQTAAKNVILFLGDGMGVPTVTATRILKGQMNGKLGPETPLAMDQFPYVALSKTYNVDRQVPDSAGTATAYLCGVKGNYRTIGVSAAARYNQCKTTRGNEVTSVMNRAKKAGKSVGVVTTTRVQHASPAGAYAHTVNRNWYSDADLPADAQMNGCQDIAAQLVNNMDIDVILGGGRKYMFPVGTPDPEYPDDASVNGVRKRKQNLVQAWQAKHQGAQYVWNRTALLQAADDSSVTHLMGLFEPADMKYNVQQDHTKDPTLQEMTEVALRVVSRNPRGFYLFVEGGRIDHGHHDDKAYMALTEAGMFDNAIAKANELTSELDTLILVTADHSHVFSFGGYTLRGTSIFGLAPSKALDSKSYTSILYGNGPGYALGGGSRPDVNDSTSEDPSYQQQAAVPQASETHGGEDVAVFARGPQAHLVHGVEEETFVAHIMAFAGCVEPYTDCNLPAPTTATSIPD",0.0604,50.3%,
"Example IX: calf intestine alkaline phosphatase conjugated with Prepolymer A (low temperature), 1 hour reaction (conjugate, UniProt P19111 20-506, looked up, conjugated with Prepolymer A) Intestinal-type alkaline …: LVPVEEEDPAFWNRQAAQALDVAKKLQPIQTAAKNVILFLGDGMGVPTVTATRILKGQMNGKLGPETPLAMDQFPYVALSKTYNVDRQVPDSAGTATAYLCGVKGNYRTIGVSAAARYNQCKTTRGNEVTSVMNRAKKAGKSVGVVTTTRVQHASPAGAYAHTVNRNWYSDADLPADAQMNGCQDIAAQLVNNMDIDVILGGGRKYMFPVGTPDPEYPDDASVNGVRKRKQNLVQAWQAKHQGAQYVWNRTALLQAADDSSVTHLMGLFEPADMKYNVQQDHTKDPTLQEMTEVALRVVSRNPRGFYLFVEGGRIDHGHHDDKAYMALTEAGMFDNAIAKANELTSELDTLILVTADHSHVFSFGGYTLRGTSIFGLAPSKALDSKSYTSILYGNGPGYALGGGSRPDVNDSTSEDPSYQQQAAVPQASETHGGEDVAVFARGPQAHLVHGVEEETFVAHIMAFAGCVEPYTDCNLPAPTTATSIPD",,,enzymatic activity remained after the reaction (alkaline phosphatase [3]): 54%
"C1: alkaline phosphatase coupled to tri-functional Prepolymer A (high temperature), NCO:NH2 0.7:1 (conjugate, UniProt P19111 20-506, looked up, coupled to Prepolymer A) Intestinal-type alkaline …: LVPVEEEDPAFWNRQAAQALDVAKKLQPIQTAAKNVILFLGDGMGVPTVTATRILKGQMNGKLGPETPLAMDQFPYVALSKTYNVDRQVPDSAGTATAYLCGVKGNYRTIGVSAAARYNQCKTTRGNEVTSVMNRAKKAGKSVGVVTTTRVQHASPAGAYAHTVNRNWYSDADLPADAQMNGCQDIAAQLVNNMDIDVILGGGRKYMFPVGTPDPEYPDDASVNGVRKRKQNLVQAWQAKHQGAQYVWNRTALLQAADDSSVTHLMGLFEPADMKYNVQQDHTKDPTLQEMTEVALRVVSRNPRGFYLFVEGGRIDHGHHDDKAYMALTEAGMFDNAIAKANELTSELDTLILVTADHSHVFSFGGYTLRGTSIFGLAPSKALDSKSYTSILYGNGPGYALGGGSRPDVNDSTSEDPSYQQQAAVPQASETHGGEDVAVFARGPQAHLVHGVEEETFVAHIMAFAGCVEPYTDCNLPAPTTATSIPD",,,binding of the antiserum raised against the antigen to immobilized alkaline phosphatase (immunogenicity) (alkaline phosphatase [4]): negligible binding
"B3: alkaline phosphatase coupled to IPDI-capped diol TAKELACK P-24, NCO:NH2 6.8:1 (conjugate, UniProt P19111 20-506, looked up, coupled to IPDI-capped diol polymer) Intestinal-type alkaline …: LVPVEEEDPAFWNRQAAQALDVAKKLQPIQTAAKNVILFLGDGMGVPTVTATRILKGQMNGKLGPETPLAMDQFPYVALSKTYNVDRQVPDSAGTATAYLCGVKGNYRTIGVSAAARYNQCKTTRGNEVTSVMNRAKKAGKSVGVVTTTRVQHASPAGAYAHTVNRNWYSDADLPADAQMNGCQDIAAQLVNNMDIDVILGGGRKYMFPVGTPDPEYPDDASVNGVRKRKQNLVQAWQAKHQGAQYVWNRTALLQAADDSSVTHLMGLFEPADMKYNVQQDHTKDPTLQEMTEVALRVVSRNPRGFYLFVEGGRIDHGHHDDKAYMALTEAGMFDNAIAKANELTSELDTLILVTADHSHVFSFGGYTLRGTSIFGLAPSKALDSKSYTSILYGNGPGYALGGGSRPDVNDSTSEDPSYQQQAAVPQASETHGGEDVAVFARGPQAHLVHGVEEETFVAHIMAFAGCVEPYTDCNLPAPTTATSIPD",0.0389,32.4%,
"C2: alkaline phosphatase coupled to tri-functional Prepolymer A (high temperature), NCO:NH2 1.3:1 (conjugate, UniProt P19111 20-506, looked up, coupled to Prepolymer A) Intestinal-type alkaline …: LVPVEEEDPAFWNRQAAQALDVAKKLQPIQTAAKNVILFLGDGMGVPTVTATRILKGQMNGKLGPETPLAMDQFPYVALSKTYNVDRQVPDSAGTATAYLCGVKGNYRTIGVSAAARYNQCKTTRGNEVTSVMNRAKKAGKSVGVVTTTRVQHASPAGAYAHTVNRNWYSDADLPADAQMNGCQDIAAQLVNNMDIDVILGGGRKYMFPVGTPDPEYPDDASVNGVRKRKQNLVQAWQAKHQGAQYVWNRTALLQAADDSSVTHLMGLFEPADMKYNVQQDHTKDPTLQEMTEVALRVVSRNPRGFYLFVEGGRIDHGHHDDKAYMALTEAGMFDNAIAKANELTSELDTLILVTADHSHVFSFGGYTLRGTSIFGLAPSKALDSKSYTSILYGNGPGYALGGGSRPDVNDSTSEDPSYQQQAAVPQASETHGGEDVAVFARGPQAHLVHGVEEETFVAHIMAFAGCVEPYTDCNLPAPTTATSIPD",0.0688,57.5%,
